The supplement of paper PMC12667976
± gives the standard error.

B1: library; numbered along this chain (parent)
chain: MATDAALRRLLRLHRTEIAVAVDSAFPLLHALADHDVVPEDKFQETLHLKEKEGCPQAFHALLSWLLTQDSTAILDFWRVLFKDYNLERYGRLQPILDSFPKDVDLSQPRKGRKPPAVPKALVPPPRLPTKRKASEEARAAAPAALTPRGTASPGSQLKAKPPKKPESSAEQQRLPLGNGIQTMSASVQRAVAMSSGDVPGARGAVEGILIQQVFESGGSKKCIQVGGEFYTPSKFEDSGSGKNKARSSSGPKPLVRAKGAQGAAPGGGEARLGQQGSVPAPLALPSDPQLHQKNEDECAVCRDGGELICCDGCPRAFHLACLSPPLREIPSGTWRCSSCLQATVQEVQPRAEEPRPQEPPVETPLPPGLRSAGEEVRGPPGEPLAGMDTTLVYKHLPAPPSAAPLPGLDSSALHPLLCVGPEGQQNLAPGARCGVCGDGTDVLRCTHCAAAFHWRCHFPAGTSRPGTGLRCRSCSGDVTPAPVEGVLAPSPARLAPGPAKDDTASHEPALHRDDLESLLSEHTFDGILQWAIQSMARPAAPFPS

Variants of: B1
Assay: AIRE transcriptional activation functional score (insulin promoter-GFP; nonsense median 0, synonymous median 1) (normalised score); higher = higher AIRE activity (more reporter activation)
Settings: with insulin promoter-GFP reporter in HEK293
Procedure: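 Deep mutational scan of full-length human AIRE (codon-optimized cDNA, DT-POPCode NNN libraries over three regions) integrated at a Bxb1 landing pad in HEK293 cells carrying an insulin core promoter-GFP reporter at a Flp-In site. Cells were sorted for the top 10% GFP about 14 days after transfection. Variant frequency log-ratios (select vs non-select, TileSeq) were rescaled so that the nonsense median is 0 and the synonymous median is 1, then averaged over biological replicates.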

A33F and T151C are within error of each other in “AIRE transcriptional activation functional score” value: 0.348 ± 0.42 for the first, 0.915 ± 0.17 for the second.

Compared with A510R, V256I is higher in “AIRE transcriptional activation functional score” value: 0.323 ± 0.16 for the first, 0.599 ± 0.084 for the second.

Going from G219Q to S535G, the “AIRE transcriptional activation functional score” value rises from 0.0466 ± 0.058 to 1.74 ± 0.088.

D442F and D442V are within error of each other in “AIRE transcriptional activation functional score” value: -0.04 ± 0.047 for the first, -0.000931 ± 0.14 for the second.

First: K83C
Second: L63M
The “AIRE transcriptional activation functional score” value of the first is higher: 0.194 ± 0.21 for the first, -0.458 ± 0.078 for the second.

P405R and R316E are within error of each other in “AIRE transcriptional activation functional score” value: 0.984 ± 0.21 for the first, 1.28 ± 0.18 for the second.

First: R272K
Second: R272E
The “AIRE transcriptional activation functional score” value of the first is lower: 0.494 ± 0.23 for the first, 1.08 ± 0.17 for the second.

S196L and C437Y are within error of each other in “AIRE transcriptional activation functional score” value: 0.512 ± 0.15 for the first, 0.215 ± 0.15 for the second.

C437N and P124D are within error of each other in “AIRE transcriptional activation functional score” value: 0.452 ± 0.035 for the first, 0.6 ± 0.38 for the second.

L417P and E229F are within error of each other in “AIRE transcriptional activation functional score” value: 0.784 ± 0.21 for the first, 0.704 ± 0.12 for the second.

A399E and L516H are within error of each other in “AIRE transcriptional activation functional score” value: 0.88 ± 0.39 for the first, 0.715 ± 0.16 for the second.

First: K102R
Second: D36K
The “AIRE transcriptional activation functional score” value of the first is higher: 2.19 ± 0.56 for the first, 0.212 ± 0.12 for the second.

Going from V20W to G438V, the “AIRE transcriptional activation functional score” value rises from 0.633 ± 0.12 to 1.1 ± 0.27.

G438C and D70E are within error of each other in “AIRE transcriptional activation functional score” value: 1.25 ± 0.083 for the first, 0.94 ± 0.4 for the second.

Compared with L210E, T344K is higher in “AIRE transcriptional activation functional score” value: -0.0363 ± 0.075 for the first, 1.16 ± 0.08 for the second.

First: K235G
Second: A186N
The “AIRE transcriptional activation functional score” value of the first is higher: 1.17 ± 0.43 for the first, 0.421 ± 0.2 for the second.

A61M and L66T are within error of each other in “AIRE transcriptional activation functional score” value: 0.552 ± 0.27 for the first, -0.0651 ± 0.43 for the second.

T364I and P115M are within error of each other in “AIRE transcriptional activation functional score” value: 0.829 ± 0.27 for the first, 0.979 ± 0.15 for the second.

First: K501W
Second: K501A
The “AIRE transcriptional activation functional score” value of the first is higher: 0.734 ± 0.049 for the first, 0.451 ± 0.07 for the second.

First: K501Q
Second: G242W
The “AIRE transcriptional activation functional score” value of the first is higher: 1.08 ± 0.11 for the first, 0.936 ± 0.021 for the second.

A281T and A537G are within error of each other in “AIRE transcriptional activation functional score” value: 0.867 ± 0.14 for the first, 0.792 ± 0.15 for the second.

H415L and T391A are within error of each other in “AIRE transcriptional activation functional score” value: 1.22 ± 0.48 for the first, 1.09 ± 0.15 for the second.

K221H and P266S are within error of each other in “AIRE transcriptional activation functional score” value: 0.705 ± 0.077 for the first, 0.824 ± 0.22 for the second.

G112V and V188D are within error of each other in “AIRE transcriptional activation functional score” value: 0.878 ± 0.38 for the first, 0.779 ± 0.13 for the second.

Compared with R465H, Q349I is higher in “AIRE transcriptional activation functional score” value: 0.546 ± 0.17 for the first, 1.05 ± 0.23 for the second.

T130R and T130K are within error of each other in “AIRE transcriptional activation functional score” value: 0.316 ± 0.33 for the first, 0.531 ± 0.12 for the second.

Compared with S99K, S99G is lower in “AIRE transcriptional activation functional score” value: 1.65 ± 0.14 for the first, 0.382 ± 0.59 for the second.

K133F and K133Q are within error of each other in “AIRE transcriptional activation functional score” value: -0.0481 ± 0.26 for the first, -0.167 ± 0.29 for the second.

A321S and A321T are within error of each other in “AIRE transcriptional activation functional score” value: 1.01 ± 0.28 for the first, 0.918 ± 0.15 for the second.

R132L and L11F are within error of each other in “AIRE transcriptional activation functional score” value: -0.017 ± 0.32 for the first, 0.127 ± 0.061 for the second.

L11E and L49P are within error of each other in “AIRE transcriptional activation functional score” value: -0.17 ± 0.24 for the first, -0.173 ± 0.43 for the second.

G469H and Q57L are within error of each other in “AIRE transcriptional activation functional score” value: 1.19 ± 0.29 for the first, 1.41 ± 0.39 for the second.

L75H and P355L are within error of each other in “AIRE transcriptional activation functional score” value: 0.935 ± 1.1 for the first, 1.11 ± 0.19 for the second.

P355Y and T504A are within error of each other in “AIRE transcriptional activation functional score” value: 1.49 ± 0.22 for the first, 1.58 ± 0.28 for the second.

Compared with S168I, F236W is higher in “AIRE transcriptional activation functional score” value: 0.348 ± 0.5 for the first, 1.44 ± 0.082 for the second.

Compared with Q346F, Y394P is higher in “AIRE transcriptional activation functional score” value: 0.819 ± 0.11 for the first, 1.43 ± 0.084 for the second.

L406W and L406P are within error of each other in “AIRE transcriptional activation functional score” value: 0.702 ± 0.17 for the first, 0.97 ± 0.28 for the second.

Compared with H14E, E485N is higher in “AIRE transcriptional activation functional score” value: -1.27 ± 0.55 for the first, 0.645 ± 0.4 for the second.

E485R and I18K are within error of each other in “AIRE transcriptional activation functional score” value: 0.652 ± 0.17 for the first, 0.219 ± 0.83 for the second.

E17H and T447Q are within error of each other in “AIRE transcriptional activation functional score” value: 0.241 ± 1 for the first, 0.797 ± 0.062 for the second.

Going from P544Q to C457D, the “AIRE transcriptional activation functional score” value falls from 0.746 ± 0.033 to 0.0222 ± 0.03.

With V420K the “AIRE transcriptional activation functional score” value was 0.606 ± 0.23.
